Assay results from patent publication US6602687B1, “DNA encoding human ciliary neurotrophic factor and method for producing the protein encoded thereby” (Regeneron Pharmaceuticals, Inc., priority 1989, dated 2003).
Changes are numbered by the printed parent chain.

What was measured:
[1] = test system: dorsal root ganglia and/or dissociated ciliary neurons; assay: Biological activity of modified and truncated CNTF proteins (rapid bacterial extracts); assay type: cell-based, chick; settings: soluble protein extracted from induced bacteria hosting each plasmid; compared with full length parental protein
Procedure: Samples for gel electrophoresis were prepared by resuspending cell pellets from 0.5 ml culture OD590=2 in 0.16 ml lysis buffer (100 mM TrisHCl, 10% glycerol, 4% sodium dodecyl sulfate, 1 mM dithiothreitol, 0.5 mg/ml bromophenol blue, pH 6.8) and boiling for 5 minutes.
(§1) Biological activity of recombinant CNTF was assayed on explants of chick embryo dorsal root ganglia (DRG) and dissociated cultures of ciliary ganglion (CG) neurons as described in Lindsay and Rohrer (1985, Devel. Biol 112:30-48). Briefly, DRG were dissected from chick embryos of 10 days incubation (E10) and 5-6 ganglia were explanted in 1 ml of a collagen gel matrix in 35 mm tissue culture dishes. After the gel had set, 1 ml of tissue culture growth medium F14 (Imperial Labs., U.K.) supplemented with 5% heat-inactivated horse serum (GIBCO) was added before adding human CNTF (1-20 l) to a final concentration of 100 pg to 100 ng/ml. CG were dissected from E8 chick embryos and incubated for 30 min in 0.25% trypsin (Worthington) in calcium- and magnesium-free phosphate buffered saline. The ganglia were then washed three times in F14 medium containing 5% horse serum before being dissociated to a single cell suspension by trituration through the bore of a Pasteur pipette. Enrichment for CG neurons was achieved by plating the cell suspension for 3.5 hr in a 60 mm dish, during which non-neuronal cells (fibroblasts and Schwann cells) attached firmly to the plastic while phase-bright neurons remained in suspension. The purified neurons were plated on polyornithine-laminin-coated 35 mm culture dishes at 8,000-10,000 neurons/dish. In explant cultures CNTF activity was determined by assessing the extent of fiber outgrowth in treated cultures compared to controls. Fiber outgrowth was scored on a scale of 0 to 5+, by comparing cultures to photographs of a dose-response of explanted DRG and NGF. In dissociated CG neuron cultures, CNTF activity was determined by counting at 48 hr the percentage of process-bearing neurons in control and CNTF-treated cultures. In all cases results were derived from triplicate cultures.
Biological activity was assayed on dorsal root ganglia and/or dissociated ciliary neurons was determined as described in section 12.1.6. Soluble protein was extracted from induced bacteria hosting each plasmid by the “rapid” protein extraction method described in section 12.1.3.

[2] = test system: E10 rat ciliary ganglion neurons; assay: Survival and neurite outgrowth of ciliary ganglion neurons with E. coli protein extract; assay type: cell-based
Procedure: (§2) In addition, protein extracts were prepared from the same cells lysed by treatment with lysozyme followed by three cycles of freezing and thawing. […] No such activity could be detected in control extracts from the same host cells carrying the plasmid vector without the rCNTF gene.

[3] = test system: E8 dorsal root ganglion neurons; assay: Survival and neurite outgrowth of dorsal root ganglion neurons / DRG assay with E. coli protein extracts; assay type: cell-based; settings: protein extract of E. coli W3110iqF-/rCNTF-C-1; after 24 and 48 hours in vitro
Procedure: as §2
Human CNTF sequence, engineered to lack intron sequences, has been inserted into the pCP93 vector and used to transform competent E. coli.

[4] = test system: E8 chick ciliary ganglion neurons; assay: Survival of dissociated E8 chick ciliary ganglion neurons; assay type: cell-based; settings: for lowest concentration at which activity was detectable: dissociated, neuron-enriched E8 chick ciliary ganglion cultures
Excerpt: Ciliary neurotrophic factor activity may be evaluated using any CNTF-sensitive in vivo or in vitro system known in the art. For example, and not by way of limitation, in vitro systems have been developed which measure CNTF activity by quantitating 24-hour survival of embryonic (E8) chick ciliary ganglion (CG) neurons in monolayer cultures.
For example, ciliary ganglia may be collected from E8 chick embryos, dissociated (yielding approximately 20,000 cells per ganglion) and then diluted in HEBM medium containing 20 percent horse serum as described in Varon et al. (1979, Brain Res. 173:29-45). About fifty microliters of cell suspension containing neurons (2,000 cells) may then be seeded into microliter dishes and putative CNTF activity may be added. Culture plates may then be maintained at 37° C. in 5% CO2 for 24 hours, after which the cultures may be fixed by the addition of 200 μl 2 per cent glutaraldehyde in HEBM medium, and the number of surviving neurons may be determined visually by direct count under phase contrast microscopy.
Chick embryo ciliary ganglion cultures were created and maintained according to the method set forth in (Hughes et al., 1988, Nature 335 : 70-73).
as §1

[5] = test system: chick embryonic spinal motorneurons; assay: Survival of chick embryonic spinal motorneurons in culture; assay type: cell-based; settings: recombinant rat CNTF, 5 ng/ml
Procedure: Motorneuron columns were dissected under a stereomicroscope from the lumbar part of the spinal cord of chick embryos on the 6th day of embryonic development and stored in cold calcium and magnesium-free Hanks balanced salt solution supplemented with glucose (4 g/l) (HBSS). The tissues were washed with HBSS and treated with 0.03% trypsin in HBSS at 37° C. for 20 min with gentle shaking, rinsed with cold HBSS and triturated mildly in 3 steps of 8-passage agitation in 1 ml of cold 0.1% soybean trypsin inhibitor (Sigma) in HBSS through a fire-polished siliconized Pasteur pipette. Each supernatant cell suspension was filtered through 50 μm-Nylon mesh, pooled and layered onto 4 ml of cold 6.8% metrizamide (Fluka) in HBSS-25 mM HEPES (pH7.4) in a 12 ml-siliconized conical glass tube. The tube was centrifuged at 400 g for 15 min at 4° C. and the intermediate layer (0.5 ml) was collected into another siliconized tube containing 6.5 ml of cold culture medium (a mixture of glucose (4 g/l)-supplemented Leibovitz's L-15 medium (Gibco), 0.15 M sodium bicarbonate, heat-inactivated and filtered horse serum and penicillin G (10^5 units/ml) at the ratio of 75:15:10:0.1, freshly prepared and buffered with 5% CO2.) After centrifugation at 100×g for 7 min at 4° C., the supernatant was removed and the cells were gently resuspended in culture medium and plated in Greiner 4-well culture dishes (well diameter, 10 mm; C. A. Greiner und Sohne GmbH, Nurtingen, West Germany) at 1000-2000 cells/well. The dishes had been precoated with poly-DL-ornithine (Sigma, 0.5 mg in 0.15 M sodium borate buffer (pH 8.3) overnight at 4° C., rinsed twice with phosphate-buffered saline (PBS) and subsequently coated with laminin (Gibco; 10 μg/ml in the serum-depleted culture medium) and placed in a 5% CO2-incubator until cell plating (5-6 hrs). Cells were incubated at 37° C. in a humidified 5% CO2- and 95% air-incubator. Samples were added one hr after plating and the culture medium changed after 24 hrs and 72 hrs. The initial cell numbers were counted 3 hrs after plating.
In some experiments motor neurons were retrogradely labeled with a fluorescent dye in vivo before cell preparation (U. Dohrman et al., 1986, Dev. Biol. 118:209-221) to identify the motor neuron cell population. A small hole was made in the shell of eggs which had been incubated for 5 days. Small pieces of rhodamine isothiocyanate crystals (Sigma) were inserted at two or three places into each hind limb thigh and the egg hole was sealed with a cellophane tape. The eggs were incubated for another 24 hrs. Some of the operated embryos were then processed for frozen sections after formaldehyde fixation. […] The other embryos were used for cell preparation using the method described above (18.1.1). After 5 hrs in culture cells were rinsed with warm HBSS, fixed with 4% formaldehyde in PBS at room temperature for 20 min, rinsed with PBS and then mounted in glycerol-PBS (1:1) with glass coverslips. Of the total cells approximately 83% were labeled and identified as motorneurons (FIG. 42.) Most of these labeled motorneurons were large cells and the rest were intermediate-size cells. No small cells were labeled. On the other hand, in experiments in which cells were not labeled with a fluorescent dye about 70% of the total cells were large phase-bright cells with round cell somas, about 20% were intermediate-size neurons (most of them may be motorneurons) and about 10% were small immature neurons (they have neuron-like processes with growth cones but have phase-dark semi-flat cell somas). Non-neuronal cells were either not present or accounted for less than 2%. Taken together, one may conclude that at least 83% of the cells are motorneurons while the remainder consists of non-labeled motorneurons, a small number of unidentified intermediate-size neurons and about 10% immature small neurons. […]

B1: pRPN59: hCNTF interrupted after the 185th codon, followed by 10 additional unrelated amino acids (protein, UniProt P26441 1-185, looked up, fragment)
chain: MAFTEHSPLTPHRRDLCSRSIWLARKIRSDLTALTESYVKHQGLNKNINLDSADGMPVASTDQWSELTEAERLQENLQAYRTFHVLLARLLEDQQVHFTPTEGDFHQAIHTLLLQVAAFAYQIEELMILLEYKIPRNEADGMPINVGDGGLFEKKLWGLKVLQELSQWTVRSIHDLRFISSHQTG
modifications: plus 10 unrelated C-terminal residues
biological activity [1]: as active as the full length protein

B2: pRPN65: rCNTF terminated immediately after the 165th codon (protein, UniProt P20294 1-165, looked up, fragment)
chain: MAFAEQTPLTLHRRDLCSRSIWLARKIRSDLTALMESYVKHQGLNKNINLDSVDGVPVASTDRWSEMTEAERLQENLQAYRTFQGMLTKLLEDQRVHFTPTEGDFHQAIHTLMLQVSAFAYQLEELMVLLEQKIPENEADGMPATVGDGGLFEKKLWGLKVLQEL
biological activity [1]: inactivated

B3: pRPN108: hCNTF with alanine in place of cysteine at amino acid 17, encoded in plasmid pRPN108 (protein, UniProt P26441 1-200, looked up, variant C17A)
Ciliary neurotrophic factor: MAFTEHSPLTPHRRDLASRSIWLARKIRSDLTALTESYVKHQGLNKNINLDSADGMPVASTDQWSELTEAERLQENLQAYRTFHVLLARLLEDQQVHFTPTEGDFHQAIHTLLLQVAAFAYQIEELMILLEYKIPRNEADGMPINVGDGGLFEKKLWGLKVLQELSQWTVRSIHDLRFISSHQTGIPARGSHYIANNKKM
biological activity [1]: as active as the full length protein

B4: pRPN109: hCNTF with serine in place of cysteine at amino acid 17, encoded in plasmid pRPN109 (protein, UniProt P26441 1-200, looked up, variant C17S)
Ciliary neurotrophic factor: B3 Ciliary neurotrophic factor with A17S
biological activity [1]: as active as the full length protein

B5: pRPN112: hCNTF interrupted after the 145th codon plus one leucine; lacks 55 carboxyl-terminal residues (protein, UniProt P26441 1-145, looked up, fragment)
chain: MAFTEHSPLTPHRRDLCSRSIWLARKIRSDLTALTESYVKHQGLNKNINLDSADGMPVASTDQWSELTEAERLQENLQAYRTFHVLLARLLEDQQVHFTPTEGDFHQAIHTLLLQVAAFAYQIEELMILLEYKIPRNEADGMPIN
modifications: plus one C-terminal leucine
notes: hCNTF interrupted after the 145th codon plus one leucine; lacks 55 carboxyl-terminal residues
biological activity [1]: inactive

B6: recombinant rat CNTF: rat ciliary neurotrophic factor expressed in E. coli (protein, UniProt P20294 1-200, looked up)
Ciliary neurotrophic factor: MAFAEQTPLTLHRRDLCSRSIWLARKIRSDLTALMESYVKHQGLNKNINLDSVDGVPVASTDRWSEMTEAERLQENLQAYRTFQGMLTKLLEDQRVHFTPTEGDFHQAIHTLMLQVSAFAYQLEELMVLLEQKIPENEADGMPATVGDGGLFEKKLWGLKVLQELSQWTVRSIHDLRVISSHQMGISALESHYGAKDKQM
amount of rCNTF at which maximal activity was seen ([2]; ciliary and dorsal root ganglion neuron cultures): less than 1 nanogram | survival and neurite outgrowth of E10 rat ciliary ganglion neurons ([2]; protein extract of E. coli W3110iqF-/rCNTF-C-1, after 24 and 48 hours in vitro): up to 50% | survival and neurite outgrowth of E8 dorsal root ganglion neurons [3]: approximately 30% | lowest concentration at which activity was detectable [4]: 2 pg/mL | motorneurons alive after 3 days in culture [5]: about 70% | motorneurons alive after 6 days in culture [5]: about 60%

B7: CNTF purified from rat sciatic nerve: native CNTF protein purified from rat sciatic nerve (protein, UniProt P20294 1-200, looked up)
Ciliary neurotrophic factor: B6 Ciliary neurotrophic factor
lowest concentration at which activity was detectable [4]: 5 pg/mL | EC50 ([4]; neuronal survival, E8 chick ciliary ganglion cultures): 0.08 ng/mL
